B1: His6-tagged Sly1p (natural protein)
chain: MAVEEIASRKDISLRDMQISAILKMLFLNKDLNNNDNITTITDDIFNQQEIIWKVLILDIKSTATISSVLRVNDLLKAGITVHSLIKQDRSPLPDVPAIYFVSPTKENIDIIVNDLKSDKYSEFYINFTSSLPRNLLEDLAQQVSITGKSDKIKQVYDQYLDFIVTEPELFSLEISNAYLTLNDPKTTEEEITGLCANIADGLFNTVLTINSIPIIRAAKGGPAEIIAEKLGTKLRDFVINTNSSSTSTLQGNDSLERGVLIILDRNIDFASMFSHSWIYQCMVFDIFKLSRNTVTIPLESKENGTDNTTAKPLATKKYDIEPNDFFWMENSHLPFPEAAENVEAALNTYKEEAAEITRKTGVTNISDLDPNSNNDTVQIQEVVKKLPELTAKKNTIDTHMNIFAALLSQLESKSLDTFFEVEQDPGSTKTRSRFLDILKDGKTNNLEDKLRSFIVLYLTSTTGLPKDFVQNVENYFKENDYDINALKYVYKLREFMQLSNMSLQNKSLEDGSDSAFKPSNLTLSGIYGLTEGKLQGGVGSLISGIKKLLPEKKTIPITNVVDAIMDPLNSSQKNLETTDSYLYIDPKITRGSHTRKPKRQSYNKSLVFVVGGGNYLEYQNLQEWAHSQLHNPKKVMYGSTAITTPAEFLNEISRLGASNSSNNDA

The target in assay [1] is T1, pre-assembled ER-Golgi cis-QabcR-SNARE complex GST-Sec22p/Sed5p/Bos1p/Bet1p (S. cerevisiae, UniProt P22214;Q01590;P25385;P22804).
T1 sequence 1: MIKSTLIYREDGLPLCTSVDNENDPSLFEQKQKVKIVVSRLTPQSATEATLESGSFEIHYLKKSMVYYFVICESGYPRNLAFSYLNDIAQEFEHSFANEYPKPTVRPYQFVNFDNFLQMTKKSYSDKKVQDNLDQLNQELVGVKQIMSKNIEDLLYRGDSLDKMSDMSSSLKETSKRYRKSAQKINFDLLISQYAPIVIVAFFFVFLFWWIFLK
T1 sequence 2: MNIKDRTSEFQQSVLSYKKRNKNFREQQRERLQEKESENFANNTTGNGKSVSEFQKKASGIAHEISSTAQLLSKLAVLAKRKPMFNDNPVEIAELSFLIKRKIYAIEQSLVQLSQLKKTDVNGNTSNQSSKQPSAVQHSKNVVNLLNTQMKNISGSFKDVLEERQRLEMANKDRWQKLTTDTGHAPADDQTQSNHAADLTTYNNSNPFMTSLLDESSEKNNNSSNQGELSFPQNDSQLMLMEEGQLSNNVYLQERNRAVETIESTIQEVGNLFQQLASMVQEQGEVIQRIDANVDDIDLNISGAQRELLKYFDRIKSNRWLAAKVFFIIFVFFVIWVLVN
T1 sequence 3: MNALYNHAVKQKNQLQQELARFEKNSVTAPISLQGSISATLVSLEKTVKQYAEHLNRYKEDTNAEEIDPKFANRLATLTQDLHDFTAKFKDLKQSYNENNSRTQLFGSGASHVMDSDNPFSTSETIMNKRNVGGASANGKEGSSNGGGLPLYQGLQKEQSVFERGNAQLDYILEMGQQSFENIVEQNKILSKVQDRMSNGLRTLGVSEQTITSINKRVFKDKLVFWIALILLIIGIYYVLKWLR
T1 sequence 4: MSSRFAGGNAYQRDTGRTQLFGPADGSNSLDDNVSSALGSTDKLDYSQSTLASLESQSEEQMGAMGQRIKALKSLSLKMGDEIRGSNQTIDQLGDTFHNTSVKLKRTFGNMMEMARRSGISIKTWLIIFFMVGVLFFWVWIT
Description: pull-down.

The target of assay [2] is T2, pre-assembled intra-Golgi cis-QabcR-SNARE complex GST-Sec22p/Sed5p/Gos1p/Sft1p (S. cerevisiae, UniProt P22214;Q01590;P38736;P43682).
T2 sequence 1: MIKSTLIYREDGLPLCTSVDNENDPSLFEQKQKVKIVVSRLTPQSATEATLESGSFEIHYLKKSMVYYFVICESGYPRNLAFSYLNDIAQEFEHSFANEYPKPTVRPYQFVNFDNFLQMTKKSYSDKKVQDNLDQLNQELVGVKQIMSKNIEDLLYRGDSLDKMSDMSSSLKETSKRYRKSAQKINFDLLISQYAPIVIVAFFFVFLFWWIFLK
T2 sequence 2: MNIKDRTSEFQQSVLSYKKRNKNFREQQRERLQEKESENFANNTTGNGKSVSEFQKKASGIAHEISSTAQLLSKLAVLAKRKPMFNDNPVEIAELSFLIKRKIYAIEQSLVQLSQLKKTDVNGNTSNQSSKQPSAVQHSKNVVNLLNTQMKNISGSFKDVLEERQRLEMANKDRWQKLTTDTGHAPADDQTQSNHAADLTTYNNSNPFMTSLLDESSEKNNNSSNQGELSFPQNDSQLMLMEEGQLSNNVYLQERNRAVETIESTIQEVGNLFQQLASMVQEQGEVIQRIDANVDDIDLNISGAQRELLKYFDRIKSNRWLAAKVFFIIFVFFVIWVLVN
T2 sequence 3: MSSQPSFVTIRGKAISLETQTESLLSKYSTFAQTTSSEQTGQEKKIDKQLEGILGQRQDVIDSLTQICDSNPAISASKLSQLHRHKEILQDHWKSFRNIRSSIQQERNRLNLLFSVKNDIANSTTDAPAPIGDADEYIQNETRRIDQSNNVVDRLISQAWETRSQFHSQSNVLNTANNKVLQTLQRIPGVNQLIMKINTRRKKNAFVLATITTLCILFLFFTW
T2 sequence 4: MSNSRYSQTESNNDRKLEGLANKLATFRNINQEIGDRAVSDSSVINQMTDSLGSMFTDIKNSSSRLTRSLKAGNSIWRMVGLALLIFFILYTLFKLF
Description: pull-down.

Assay [3] addresses T3, ER-Golgi 3Q-SNARE set Sed5p/Bos1p/Bet1p reconstituted on proteoliposomes (S. cerevisiae, UniProt Q01590;P25385;P22804).
T3 sequence 1: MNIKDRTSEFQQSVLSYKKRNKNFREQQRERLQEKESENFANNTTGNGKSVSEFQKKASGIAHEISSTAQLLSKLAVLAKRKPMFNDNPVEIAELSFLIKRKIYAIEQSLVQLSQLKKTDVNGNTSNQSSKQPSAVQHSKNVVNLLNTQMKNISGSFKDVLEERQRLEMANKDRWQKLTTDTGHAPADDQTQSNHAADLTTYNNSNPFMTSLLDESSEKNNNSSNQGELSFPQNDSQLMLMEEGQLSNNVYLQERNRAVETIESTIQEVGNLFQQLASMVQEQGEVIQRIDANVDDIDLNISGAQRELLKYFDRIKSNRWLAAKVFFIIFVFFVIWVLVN
T3 sequence 2: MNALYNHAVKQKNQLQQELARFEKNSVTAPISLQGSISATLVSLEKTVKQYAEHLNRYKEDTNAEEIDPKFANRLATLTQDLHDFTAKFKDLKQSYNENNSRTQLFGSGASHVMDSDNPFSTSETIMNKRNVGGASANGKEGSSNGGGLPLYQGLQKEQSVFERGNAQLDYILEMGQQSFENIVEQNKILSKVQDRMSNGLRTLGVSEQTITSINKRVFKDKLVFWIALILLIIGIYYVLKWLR
T3 sequence 3: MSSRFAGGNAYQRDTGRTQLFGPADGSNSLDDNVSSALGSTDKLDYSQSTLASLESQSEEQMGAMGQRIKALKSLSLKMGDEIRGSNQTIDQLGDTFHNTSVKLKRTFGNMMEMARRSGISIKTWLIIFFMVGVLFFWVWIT
Description: co-sedimentation.

The target of assay [4] is T4, mixed 3Q-SNARE set Sed5p/Gos1p/Bet1p reconstituted on proteoliposomes (S. cerevisiae, UniProt Q01590;P38736;P22804).
T4 sequence 1: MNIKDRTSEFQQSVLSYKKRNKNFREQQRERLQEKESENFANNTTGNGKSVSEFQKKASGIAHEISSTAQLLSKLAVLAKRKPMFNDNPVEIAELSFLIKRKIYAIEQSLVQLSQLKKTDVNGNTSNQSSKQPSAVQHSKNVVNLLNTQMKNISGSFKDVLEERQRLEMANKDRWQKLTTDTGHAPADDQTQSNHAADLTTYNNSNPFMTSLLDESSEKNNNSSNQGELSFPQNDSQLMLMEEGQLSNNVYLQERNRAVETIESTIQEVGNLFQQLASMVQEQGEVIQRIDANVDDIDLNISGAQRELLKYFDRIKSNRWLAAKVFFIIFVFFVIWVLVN
T4 sequence 2: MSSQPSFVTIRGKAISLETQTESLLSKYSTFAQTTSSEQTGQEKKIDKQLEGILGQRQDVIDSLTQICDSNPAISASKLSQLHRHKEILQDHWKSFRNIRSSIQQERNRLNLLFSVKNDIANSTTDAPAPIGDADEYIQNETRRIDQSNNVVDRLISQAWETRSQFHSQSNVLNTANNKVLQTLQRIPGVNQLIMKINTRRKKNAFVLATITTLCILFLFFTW
T4 sequence 3: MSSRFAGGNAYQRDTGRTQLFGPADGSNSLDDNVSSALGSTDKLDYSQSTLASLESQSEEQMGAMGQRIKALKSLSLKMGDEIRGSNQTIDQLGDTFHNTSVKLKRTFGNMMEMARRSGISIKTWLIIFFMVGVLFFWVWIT
Description: co-sedimentation.

Assay [5] has as its target mixed 3Q-SNARE set Sed5p/Vti1p/Bet1p reconstituted on proteoliposomes (S. cerevisiae, UniProt Q01590;Q04338;P22804). Description: co-sedimentation.
For assay [6], the target named is mixed 3Q-SNARE set Sed5p/Vti1p/Vam7p reconstituted on proteoliposomes (S. cerevisiae, UniProt Q01590;Q04338;P32912). In words: co-sedimentation.
Sequence of mixed 3Q-SNARE set Sed5p/Vti1p/Vam7p reconstituted on proteoliposomes (P32912 whole entry, one chain of several): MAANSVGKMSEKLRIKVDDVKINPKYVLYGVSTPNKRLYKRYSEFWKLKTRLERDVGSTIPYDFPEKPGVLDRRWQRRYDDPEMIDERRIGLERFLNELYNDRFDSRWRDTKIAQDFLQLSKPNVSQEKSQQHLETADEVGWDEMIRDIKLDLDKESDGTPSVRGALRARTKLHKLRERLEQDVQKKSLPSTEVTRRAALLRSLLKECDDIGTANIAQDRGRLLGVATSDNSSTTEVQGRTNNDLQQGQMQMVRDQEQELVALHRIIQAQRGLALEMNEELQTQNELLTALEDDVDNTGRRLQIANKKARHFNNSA
Assay [7] concerns the target B1. Description: co-sedimentation.

The source of these data is publication PMC3940976 (Scientific Reports, 2014).

With B1, the binding result in assay [1], in assay [2], in assay [3], in assay [4], in assay [5] and in assay [6] was “binds” each time.

B2: intra-Golgi 3Q-SNARE set Sed5p/Gos1p/Sft1p reconstituted on proteoliposomes (complex)
chain 1: MNIKDRTSEFQQSVLSYKKRNKNFREQQRERLQEKESENFANNTTGNGKSVSEFQKKASGIAHEISSTAQLLSKLAVLAKRKPMFNDNPVEIAELSFLIKRKIYAIEQSLVQLSQLKKTDVNGNTSNQSSKQPSAVQHSKNVVNLLNTQMKNISGSFKDVLEERQRLEMANKDRWQKLTTDTGHAPADDQTQSNHAADLTTYNNSNPFMTSLLDESSEKNNNSSNQGELSFPQNDSQLMLMEEGQLSNNVYLQERNRAVETIESTIQEVGNLFQQLASMVQEQGEVIQRIDANVDDIDLNISGAQRELLKYFDRIKSNRWLAAKVFFIIFVFFVIWVLVN
chain 2: MSSQPSFVTIRGKAISLETQTESLLSKYSTFAQTTSSEQTGQEKKIDKQLEGILGQRQDVIDSLTQICDSNPAISASKLSQLHRHKEILQDHWKSFRNIRSSIQQERNRLNLLFSVKNDIANSTTDAPAPIGDADEYIQNETRRIDQSNNVVDRLISQAWETRSQFHSQSNVLNTANNKVLQTLQRIPGVNQLIMKINTRRKKNAFVLATITTLCILFLFFTW
chain 3: MSNSRYSQTESNNDRKLEGLANKLATFRNINQEIGDRAVSDSSVINQMTDSLGSMFTDIKNSSSRLTRSLKAGNSIWRMVGLALLIFFILYTLFKLF
For the molecule B2, the binding result in assay [7] is “binds”.

B3: mixed 3Q-SNARE set Sed5p/Vti1p/Tlg1p reconstituted on proteoliposomes (complex)
chain 1: MNIKDRTSEFQQSVLSYKKRNKNFREQQRERLQEKESENFANNTTGNGKSVSEFQKKASGIAHEISSTAQLLSKLAVLAKRKPMFNDNPVEIAELSFLIKRKIYAIEQSLVQLSQLKKTDVNGNTSNQSSKQPSAVQHSKNVVNLLNTQMKNISGSFKDVLEERQRLEMANKDRWQKLTTDTGHAPADDQTQSNHAADLTTYNNSNPFMTSLLDESSEKNNNSSNQGELSFPQNDSQLMLMEEGQLSNNVYLQERNRAVETIESTIQEVGNLFQQLASMVQEQGEVIQRIDANVDDIDLNISGAQRELLKYFDRIKSNRWLAAKVFFIIFVFFVIWVLVN
chain 2: MSSLLISYESDFKTTLEQAKASLAEAPSQPLSQRNTTLKHVEQQQDELFDLLDQMDVEVNNSIGDASERATYKAKLREWKKTIQSDIKRPLQSLVDSGDRDRLFGDLNASNIDDDQRQQLLSNHAILQKSGDRLKDASRIANETEGIGSQIMMDLRSQRETLENARQTLFQADSYVDKSIKTLKTMTRRLVANKFISYAIIAVLILLILLVLFSKFK
chain 3: […]
Consider B3, for which the binding result in assay [7] is listed as “binds”.
